Measurements taken from patent US20260078398A1, “PLANTS GENETICALLY ENGINEERED FOR INCREASED WATER USE EFFICIENCY AND CARBON INTAKE AND METHODS FOR MAKING AND USING THEM” (The Regents of the University of California, priority 2022, published 2026).

Columns and labels:
Brachypodium distachyon = test: stomatal conductance after ABA added to the transpiration stream (gas exchange analyzer); type: in vivo; conditions: 2 μM ABA
Method: We next investigated stomatal closure in response to abscisic acid.
(top infrared thermal image, bottom photo of the same plants). • (B) Stomatal density and (C) stomatal index were determined using leaf imprints created of the 4th true leaf of plants with 3 independent replicates plants per genotype with 4 images per plant. Circles represent counts per each image while diamonds are the average per each plant. Error bars represent SEM while p-values were obtained from two-tailed t-tests comparing mutant to WT. • (D) Stomatal conductance was quantified using a gas exchange analyzer. […] Data shown are the average of n=3±SEM plants per genotype using 1 leaf per experiment and genotype.
FIG. 14 (or FIG. 8 of Example 2): Bdmpk5 CRISPR Alleles Show Strong CO2 insensitivity but functional ABA responses. • (A, B) 5 to 6 week old plants were analyzed in time-resolved stomatal conductance analyses. • (A) CRISPR alleles show strongly impaired stomatal responses to CO2 shifts. […] Data shown are the average of n=3±SEM experiments using one leaf per experiment and genotype. • (C,D) Stomatal density (C) and stomatal index (D) were determined using leaf imprints created of the 4th true leaf with 3 replicate plants and genotype. […]

[1] = biological target: T1, GST-CBC1 (recombinant Arabidopsis Raf-like kinase CBC1 with GST tag)
T1 sequence (Q9SSA4 whole entry, looked up): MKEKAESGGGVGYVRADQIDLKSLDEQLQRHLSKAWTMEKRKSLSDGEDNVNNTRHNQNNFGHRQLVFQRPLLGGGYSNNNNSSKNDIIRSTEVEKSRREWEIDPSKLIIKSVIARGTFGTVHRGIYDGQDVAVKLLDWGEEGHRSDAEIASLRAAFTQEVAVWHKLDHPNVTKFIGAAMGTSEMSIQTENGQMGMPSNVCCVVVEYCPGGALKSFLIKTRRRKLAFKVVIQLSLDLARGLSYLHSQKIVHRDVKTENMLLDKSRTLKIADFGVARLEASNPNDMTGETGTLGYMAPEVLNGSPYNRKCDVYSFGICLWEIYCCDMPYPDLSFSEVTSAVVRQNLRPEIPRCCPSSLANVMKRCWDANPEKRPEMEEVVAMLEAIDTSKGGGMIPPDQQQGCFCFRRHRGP

MPK4 and HT1 = test: in vitro pull-down assay, His-HT1 with GST-MPK4; type: binding, Arabidopsis; conditions: pull-down with or without 20 mM NaHCO3
Method: We therefore investigated a possible binding between MPK4 and HT1 and the effect of HCO3^−.
FIG. 4. […] CO2 concentration changes were applied as indicated on top (p.p.m.). n=6 experiments, error bars show ±SEM. • (J) Model of plant stomatal CO2 sensor and signaling (see text).
FIG. 6. […] Precipitated proteins were washed with buffers supplemented with NaHCO3 at the indicated concentrations (0, 2 or 20 mM). See FIG. 4d for an independent experiment. To control for effects of Na^+, 20 mM NaCl (0 mM NaHCO3) for lanes 1 and 4 were included in the buffers; and 18 mM NaCl (2 mM NaHCO3) for lane 3 were included in buffer.

[2] = test system: MPK4/12, HT1 and CBC1 recombinant proteins; test: in vitro phosphorylation assay: NaHCO3-dependent down-regulation of HT1-mediated CBC1 phosphorylation; type: biochemical, Arabidopsis; conditions: isoform replaces wild type protein or is added; 20 mM NaHCO3 vs NaCl control, 30 min
Method: We tested whether this HT1-mediated activation of CBC1 is inhibited by CO2/bicarbonate by adding NaHCO3 in in vitro phosphorylation reactions. […]
FIG. 2. […] Histone was used as an artificial protein kinase substrate. • (B) MPK4, HT1 and CBC1 proteins were incubated with NaHCO3 at the indicated concentrations for 30 min, and in vitro phosphorylation assays were performed. • (C) CBC1 band intensities as shown in (B) were measured using IMAGEJ™, n=4 experiments, error bars show ±S.D. • (D) MPK4, HT1 and CBC1 proteins were incubated in reaction buffers adjusted at different pH (6.5 to 8.5) for 30 min, and in vitro phosphorylation assays were performed. • (E) CBC1 band intensities and the density-ratios of ‘+NaHCO3’ to ‘—NaHCO3’ (=+NaCl controls) for each pH condition
FIG. 3. […] Ambient CO2 concentrations are indicated by the top bars. n=7 experiments, error bars show ±SEM. • (C) Recombinant HT1 (wild type, HT1-G89R or HT1-R173Q) and CBC1 proteins were incubated with MPK4 in the presence or absence of 20 mM NaHCO3 or 20 mM NaCl (−controls) for 30 min, and in vitro phosphorylation assays were performed. • (D) Recombinant MPK12, CBC1 and HT1 (WT or R102K) proteins were incubated with or without 20 mM NaHCO3 or 20 mM NaCl (−controls) for 30 min, and in vitro phosphorylation assays were performed. Histone was used as an artificial kinase substrate. • (E) HT1 (WT or A109V) proteins were used for in vitro phosphorylation assays. Proteins were incubated with or without 20 mM NaHCO3 or 20 mM NaCl (−controls) for 30 min. • (F) Stomatal conductances were analyzed using intact plants of Arabidopsis (Col-0 (WT), cbc1 cbc2, ht1-A109V and cbc1 cbc2 ht1-A109V). CO2 concentration changes were applied as indicated on top (p.p.m.). […]

[3] = biological target: T2, GST-MPK4 (recombinant Arabidopsis MAP kinase MPK4 with GST tag)
T2 chain: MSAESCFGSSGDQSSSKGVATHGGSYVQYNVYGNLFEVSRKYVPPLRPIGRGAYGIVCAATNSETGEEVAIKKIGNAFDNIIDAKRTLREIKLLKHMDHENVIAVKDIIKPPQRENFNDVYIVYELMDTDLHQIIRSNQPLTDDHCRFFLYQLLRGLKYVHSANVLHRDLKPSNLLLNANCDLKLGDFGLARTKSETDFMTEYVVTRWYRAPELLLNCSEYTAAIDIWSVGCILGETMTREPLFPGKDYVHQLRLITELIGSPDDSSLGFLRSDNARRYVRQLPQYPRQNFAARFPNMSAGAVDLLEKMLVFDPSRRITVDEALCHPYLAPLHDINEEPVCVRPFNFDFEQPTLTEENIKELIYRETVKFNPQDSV

BdMPK5, HT1 and CBC1 = test: in vitro phosphorylation assay with GST-CBC1, His-HT1 and His-BdMPK5; type: biochemical, Brachypodium distachyon; conditions: with or without 20 mM NaHCO3, n=2
Method: Furthermore, this activation of CBC1 is inhibited by elevated CO2/bicarbonate only when HT1, CBC1 and MPK4 or MPK12 are included in the reconstituted reaction (Takahashi et al., 2022). […] The high CO2/bicarbonate response was similar to high CO2 responses found for AtMPK4 and AtMPK12, but not for the close homolog AtMPK11 (Takahashi et al., 2022).
In vitro phosphorylation assays were performed using GST-CBC1, His-HT1 and His-BdMPK5 (WT or D90N) recombinant proteins with or without 20 mM NaHCO3. Phosphorylation levels of CBC1 (top) and Coomassie brilliant blue (CBB)-stained gels (bottom) are shown. • (B) AlphaFold2-predicted complex of BdMPK5 with HT1. BdMPK5 is shown in red, while HT1 is shown in blue. The BdMPK5-D90 residue, which is mutant in chill1, is colored green, and is predicted, based on the wildtype BdMPK5-HT1 simulation, to lie at the interface of BdMPK5 and HT1.

Molecule: CC1=CC(=O)CC(C)(C)[C@@]1(O)/C=C/C(C)=C\C(=O)O [ABA, abscisic acid]
- stomatal conductance response to ABA (Brachypodium distachyon; T3 BdMPK5 CRISPR lines): steep decline in conductance
- stomatal conductance response to ABA (Brachypodium distachyon; chill1 leaves, 5-week old): responded similarly to WT

B1: His-HT1 (recombinant Arabidopsis HT1 protein kinase, wild type, with His tag) (protein)
chain: MSGLCFNPFRLRWSLRSKLPLEPSLPNLPCNPSSSKTNRYAEAETMEKKRFDSMESWSMILESENVETWEASKGEREEWTADLSQLFIGNKFASGAHSRIYRGIYKQRAVAVKMVRIPTHKEETRAKLEQQFKSEVALLSRLFHPNIVQFIAACKKPPVYCIITEYMSQGNLRMYLNKKEPYSLSIETVLRLALDISRGMEYLHSQGVIHRDLKSNNLLLNDEMRVKVADFGTSCLETQCREAKGNMGTYRWMAPEMIKEKPYTRKVDVYSFGIVLWELTTALLPFQGMTPVQAAFAVAEKNERPPLPASCQPALAHLIKRCWSENPSKRPDFSNIVAVLEKYDECVKEGLPLTSHASLTKTKKAILDHLKGCVTSISSPFSSSSVPVNA
- CBC1 phosphorylation, in vitro phosphorylation assay with radioactive 32P-ATP (FIG. 5) [1]: We confirmed CBC1 phosphorylation by HT1 using recombinant His-HT1 and GST-CBC1 proteins

B2: HT1-R173Q (protein)
chain: MSGLCFNPFRLRWSLRSKLPLEPSLPNLPCNPSSSKTNRYAEAETMEKKRFDSMESWSMILESENVETWEASKGEREEWTADLSQLFIGNKFASGAHSRIYRGIYKQRAVAVKMVRIPTHKEETRAKLEQQFKSEVALLSRLFHPNIVQFIAACKKPPVYCIITEYMSQGNLQMYLNKKEPYSLSIETVLRLALDISRGMEYLHSQGVIHRDLKSNNLLLNDEMRVKVADFGTSCLETQCREAKGNMGTYRWMAPEMIKEKPYTRKVDVYSFGIVLWELTTALLPFQGMTPVQAAFAVAEKNERPPLPASCQPALAHLIKRCWSENPSKRPDFSNIVAVLEKYDECVKEGLPLTSHASLTKTKKAILDHLKGCVTSISSPFSSSSVPVNA
- HCO3- dependent binding of HT1 isoform with MPK4 (MPK4 and HT1): partially interact with MPK4
- NaHCO3-mediated down-regulation of CBC1 phosphorylation/activity with the protein isoform in the reaction [2]: partly impaired the NaHCO3-dependent CBC1 downregulation
- NaHCO3-dependent CBC1 downregulation, in vitro phosphorylation assay with MPK4 and CBC1 (FIG. 3C) [3]: the R173Q mutation partly impaired the NaHCO3-dependent CBC1 downregulation

B3: BdMPK5: recombinant Brachypodium distachyon MAP kinase BdMPK5, SEQ ID NO: 13 (protein)
chain: MRMEGGGAGPAAAAAAGGAHGLGEAQIKGTLTHGGRYVQYNVYGNLFEVSAKYVPPIRPVGRGACGIICAAINVQTREEVAIKKIGNAFDNQIDAKRTLREVKLLRHMNHENVISIKDIIRPPRRENFNDVYIVYELMDTDLHHLLRSNQPLTDDHCQYFLYQVLRGLKYVHSANVLHRDLRPSNLLLNAKCDLKIGDFGLARTTTETDFMMEYVVTRWYRAPELLLNCSEYTGAIDMWSVGCILGEIATREPLFPGKDYVHQLRLITELLGSPDDTSLGFLRSDNARRYVRSLPQYPKQQFRSRFPNMSSGAMDLLERMLVFDPNKRITVDEALCHPYLASLHEINDEPVCPAPFSFDFEQPSFTEEDIKELIWRESVKFNPEPIH
modifications: Synthetic: Bd21-3 (WT) BdMPK5
- high CO2/bicarbonate-mediated down-regulation of CBC1 phosphorylation with BdMPK5 protein (BdMPK5, HT1 and CBC1): high CO2/bicarbonate-induced down-regulation of the CBC1 protein kinase activity

B4: BdMPK5-D90N: chill1 variant of BdMPK5 protein, SEQ ID NO: 14 (protein)
chain: MRMEGGGAGPAAAAAAGGAHGLGEAQIKGTLTHGGRYVQYNVYGNLFEVSAKYVPPIRPVGRGACGIICAAINVQTREEVAIKKIGNAFNNQIDAKRTLREVKLLRHMNHENVISIKDIIRPPRRENFNDVYIVYELMDTDLHHLLRSNQPLTDDHCQYFLYQVLRGLKYVHSANVLHRDLRPSNLLLNAKCDLKIGDFGLARTTTETDFMMEYVVTRWYRAPELLLNCSEYTGAIDMWSVGCILGEIATREPLFPGKDYVHQLRLITELLGSPDDTSLGFLRSDNARRYVRSLPQYPKQQFRSRFPNMSSGAMDLLERMLVFDPNKRITVDEALCHPYLASLHEINDEPVCPAPFSFDFEQPSFTEEDIKELIWRESVKFNPEPIH
modifications: Synthetic: Chill1 BdMPK5
- high CO2/bicarbonate-mediated down-regulation of CBC1 phosphorylation with BdMPK5 protein (BdMPK5, HT1 and CBC1): abrogated the high CO2/bicarbonate-mediated downregulation of CBC1 phosphorylation
